Assay results: patent US20150322129A1 (Sanofi, published 2015)
Like-named read-outs stand apart in the source and are kept apart here. Numbered stars: 1 amine (or outer) side, 2 acyl side, 3 side chain; on linkers, the order of the positions; unused ones are H or OH. Square brackets hold non-standard residues; d marks the D form. Side chains are listed from the residue outwards. Ends that are not written are not given here. * marks the point of attachment. γGlu = O=C(O)[C@H](CCC(=O)[*:2])N[*:1]; Stearoyl = CCCCCCCCCCCCCCCCCC(=O)*; Palmitoyl = CCCCCCCCCCCCCCCC(=O)*; Aib = CC(C)(N)C(=O)O

T1: human GIP receptor (human, UniProt P48546 22-466)
T1 sequence (looked up): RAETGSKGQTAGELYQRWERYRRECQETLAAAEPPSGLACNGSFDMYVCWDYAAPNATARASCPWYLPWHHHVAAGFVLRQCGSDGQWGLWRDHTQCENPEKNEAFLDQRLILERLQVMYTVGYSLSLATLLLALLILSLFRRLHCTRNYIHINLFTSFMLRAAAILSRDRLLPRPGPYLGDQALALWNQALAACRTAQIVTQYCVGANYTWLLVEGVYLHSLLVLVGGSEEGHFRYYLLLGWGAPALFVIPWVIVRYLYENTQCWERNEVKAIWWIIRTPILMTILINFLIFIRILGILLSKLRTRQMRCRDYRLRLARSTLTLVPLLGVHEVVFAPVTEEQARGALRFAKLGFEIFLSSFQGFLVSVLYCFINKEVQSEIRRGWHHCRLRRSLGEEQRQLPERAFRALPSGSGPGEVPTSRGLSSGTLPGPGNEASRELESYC

B1: SEQ ID NO: 12 (peptide)
peptide: H[Aib]HGTFTSDLSKQK([γGlu-Palmitoyl])EEEAVRLFIEWLKAGGPSSGAPPPS-NH2
B2: SEQ ID NO: 13 (peptide)
peptide: H[dS]HGTFTSDLSKQK([γGlu-γGlu-Palmitoyl])EEEAVRLFIEWLKAGGPSSGAPPPS-NH2
B3: SEQ ID NO: 11 (peptide)
peptide: H[Aib]HGTFTSDLSKQK([γGlu-γGlu-Palmitoyl])EEEAVRLFIEWLKAGGPSSGAPPPS-NH2
B4: SEQ ID NO: 14 (peptide)
peptide: H[dS]HGTFTSDLSKQK([γGlu-Palmitoyl])EEEAVRLFIEWLKAGGPSSGAPPPS-NH2
B5: SEQ ID NO: 35 (peptide)
peptide: H[dS]HGTFTSDLSKQK(Ac)EEEAVRLFIEWLKAGGPSSGAPPPS-NH2
B6: SEQ ID NO: 34 (peptide)
peptide: H-H[Aib]HGTFTSDLSKQK(Ac)EEEAVRLFIEWLKAGGPSSGAPPPS-NH2
B7: SEQ ID NO: 7 (peptide)
peptide: H[Aib]HGTFTSDLSKQK([γGlu-Stearoyl])EEEAVRLFIEWLKAGGPSSGAPPPS-NH2
B8: SEQ ID NO: 25 (peptide)
peptide: H-H[dS]HGTFTSDLSKQK([γGlu-Stearoyl])EEEAVRLFIEWLKAGGPSSGAPPPS-NH2
SMILES: CCCCCCCCCCCCCCCCCC(=O)N[C@@H](CCC(=O)NCCCC[C@H](NC(=O)[C@H](CCC(N)=O)NC(=O)[C@H](CCCCN)NC(=O)[C@H](CO)NC(=O)[C@H](CC(C)C)NC(=O)[C@H](CC(=O)O)NC(=O)[C@H](CO)NC(=O)[C@@H](NC(=O)[C@H](Cc1ccccc1)NC(=O)[C@@H](NC(=O)CNC(=O)[C@H](Cc1c[nH]cn1)NC(=O)[C@@H](CO)NC(=O)[C@@H](N)Cc1c[nH]cn1)[C@@H](C)O)[C@@H](C)O)C(=O)N[C@@H](CCC(=O)O)C(=O)N[C@@H](CCC(=O)O)C(=O)N[C@@H](CCC(=O)O)C(=O)N[C@@H](C)C(=O)N[C@H](C(=O)N[C@@H](CCCNC(=N)N)C(=O)N[C@@H](CC(C)C)C(=O)N[C@@H](Cc1ccccc1)C(=O)N[C@H](C(=O)N[C@@H](CCC(=O)O)C(=O)N[C@@H](Cc1c[nH]c2ccccc12)C(=O)N[C@@H](CC(C)C)C(=O)N[C@@H](CCCCN)C(=O)N[C@@H](C)C(=O)NCC(=O)NCC(=O)N1CCC[C@H]1C(=O)N[C@@H](CO)C(=O)N[C@@H](CO)C(=O)NCC(=O)N[C@@H](C)C(=O)N1CCC[C@H]1C(=O)N1CCC[C@H]1C(=O)N1CCC[C@H]1C(=O)N[C@@H](CO)C(N)=O)[C@@H](C)CC)C(C)C)C(=O)O

Tests used:
Test in all cases: cell-based or functional assay
[1] = biological target: T2, human glucagon receptor (human, UniProt P47871 26-477)
T2 sequence (P47871 26-477): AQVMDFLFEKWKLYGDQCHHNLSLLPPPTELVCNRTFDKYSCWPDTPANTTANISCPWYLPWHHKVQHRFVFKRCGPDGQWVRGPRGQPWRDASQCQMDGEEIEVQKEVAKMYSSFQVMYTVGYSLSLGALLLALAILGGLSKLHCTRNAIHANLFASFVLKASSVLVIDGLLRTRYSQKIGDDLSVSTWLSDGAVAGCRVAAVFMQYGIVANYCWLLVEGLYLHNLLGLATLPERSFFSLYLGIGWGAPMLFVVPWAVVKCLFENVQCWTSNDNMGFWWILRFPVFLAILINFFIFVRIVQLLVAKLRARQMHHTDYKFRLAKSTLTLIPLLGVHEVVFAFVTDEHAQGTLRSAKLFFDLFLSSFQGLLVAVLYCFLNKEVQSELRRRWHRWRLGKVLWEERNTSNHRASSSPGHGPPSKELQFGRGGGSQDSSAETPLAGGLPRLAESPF

[2] = biological target: T3, human GLP-1 receptor (human, UniProt P43220 24-463)
[3] = biological target: T1, human GIP receptor
[4] = biological target: T2, human glucagon receptor; remark: listed apart in the source
[5] = biological target: T3, human GLP-1 receptor; remark: listed apart in the source
[6] = biological target: T1, human GIP receptor; remark: listed apart in the source

Binder | EC50 hGlucagon-R (cAMP formation) [1] [nM] | EC50 hGLP-1R (cAMP formation) [2] [nM] | EC50 hGIP-1 (cAMP formation) [3] [nM] | EC50 hGlucagon-R (cAMP formation) [4] [nM] | EC50 hGLP-1R (cAMP formation) [5] [nM] | EC50 hGIP-R (cAMP formation) [6] [nM]
B1 | 0.0128 | 0.0033 | 0.0088 | 0.0128 | 0.0033 | 0.0088
B2 | 0.0225 | – | 0.079 | 0.0225 | – | 0.079
B3 | 0.0089 | – | 0.0079 | 0.0089 | – | 0.0079
B4 | 0.0584 | 0.0041 | 0.437 | 0.0584 | 0.0041 | 0.437
B5 | 2.86 | 0.0004 | 4.04 | – | – | –
B6 | 0.829 | 0.0007 | 0.0254 | – | – | –
B7 | 0.0058 | 0.0065 | 0.0256 | 0.0058 | 0.0065 | 0.0256
B8 | 0.0399 | 0.0081 | 0.407 | 0.0399 | 0.0081 | 0.407
